The values that follow come from PMC7367449.

Experiment [1] deals with anti-gH Mab OHV-3 (murine). Put plainly: SPR; Biacore T200, CM5 chip; Mab captured via immobilised Protein A/Protein L; soluble tetramer injected at 5, 10, 20, 40 and 80 nM; single-cycle kinetics. A general note: In SPR one partner is held on a chip, and binding of the other changes the refractive index at the surface.
Experiment [2] concerns the target recombinant hCD134 with C-terminal human FcHis-tag replacing the transmembrane domain (hCD134-hFcHis) (human) (UniProt P43489). Briefly: SPR; Biacore T200, CM5 chip; hCD134-hFcHis captured via immobilised Protein A; soluble tetramer injected; steady-state affinity analysis of the response units at equilibrium.
The target is the same in experiment [3]. Briefly: SPR; Biacore T200, CM5 chip; hCD134-hFcHis captured via immobilised Protein A; soluble tetramer injected; multi-cycle kinetics, 1:1 binding fit.

UniProt P43489, sequence (P43489 29-214): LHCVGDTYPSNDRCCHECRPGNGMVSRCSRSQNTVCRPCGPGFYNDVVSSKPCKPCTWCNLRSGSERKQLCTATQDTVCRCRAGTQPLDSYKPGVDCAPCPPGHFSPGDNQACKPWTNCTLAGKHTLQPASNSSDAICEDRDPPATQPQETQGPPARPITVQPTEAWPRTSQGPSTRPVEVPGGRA
anti-gH Mab OHV-3 (murine), sequence (heavy, as listed by the source, chain 1 of 2): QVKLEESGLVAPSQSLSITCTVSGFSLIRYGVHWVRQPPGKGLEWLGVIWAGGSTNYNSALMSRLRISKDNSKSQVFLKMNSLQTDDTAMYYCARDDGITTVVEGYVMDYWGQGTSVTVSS
anti-gH Mab OHV-3 (murine), sequence (light, as listed by the source, chain 2 of 2): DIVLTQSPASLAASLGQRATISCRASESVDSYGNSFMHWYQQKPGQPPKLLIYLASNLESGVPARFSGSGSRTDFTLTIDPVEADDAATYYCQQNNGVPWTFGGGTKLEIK

Broadly, the Kd is the concentration at which binding is half-saturated. For orientation: koff means the rate constant with which the complex falls apart. One may read the kon as the rate constant with which the complex forms. In experiment [1], “soluble HHV-6B gH/gL/gQ1/gQ2 complex (HHV-6B tetramer)” displayed a Kd of 2.7 nM, a koff of 0.00035 s⁻¹ and a kon of 130000 M⁻¹ s⁻¹. Besides, the Kd in experiment [2] stood at 18 nM. In addition, in experiment [3], the Kd came to 14 nM, the koff was determined as 0.0158 s⁻¹ and the kon was 1.1e+06 M⁻¹ s⁻¹.
